Experimental data taken from paper PMC2481239 (Nature structural & molecular biology, 2008).

B1: Rad23 (natural protein)
chain: MVSLTFKNFKKEKVPLDLEPSNTILETKTKLAQSISCEESQIKLIYSGKVLQDSKTVSECGLKDGDQVVFMVSQKKSTKTKVTEPPIAPESATTPGRENSTEASPSTDASAAPAATAPEGSQPQEEQTATTERTESASTPGFVVGTERNETIERIMEMGYQREEVERALRAAFNNPDRAVEYLLMGIPENLRQPEPQQQTAAAAEQPSTAATTAEQPAEDDLFAQAAQGGNASSGALGTTGGATDAAQGGPPGSIGLTVEDLLSLRQVVSGNPEALAPLLENISARYPQLREHIMANPEVFVSMLLEAVGDNMQDVMEGADDMVEGEDIEVTGEAAAAGLGQGEGEGSFQVDYTPEDDQAISRLCELGFERDLVIQVYFACDKNEEAAANILFSDHAD
B2: Rpn2 (natural protein)
chain: MSLTTAAPLLALLRENQDSVKTYALESINNVVDQLWSEISNELPDIEALYDDDTFSDREMAALIASKVYYNLGEYESAVKYALAAKDRFDIDEKSQFVETIVSKSIEMYVQEASKQYTKDEQFYTKDIIDPKLTSIFERMIEKCLKASELKLALGIALEGYRLDIIESALKSKLDQDSTSENVKIINYLLTLAITTVTNSKFRSSILRKSFDFLMNMPNCDYLTLNKVVVNLNDAGLALQLFKKLKEENDEGLSAQIAFDLVSSASQQLLEILVTELTAQGYDPALLNILSGLPTCDYYNTFLLNNKNIDIGLLNKSKSSLDGKFSLFHTAVSVANGFMHAGTTDNSFIKANLPWLGKAQNWAKFTATASLGVIHKGNLLEGKKVMAPYLPGSRASSRFIKGGSLYGLGLIYAGFGRDTTDYLKNIIVENSGTSGDEDVDVLLHGASLGIGLAAMGSANIEVYEALKEVLYNDSATSGEAAALGMGLCMLGTGKPEAIHDMFTYSQETQHGNITRGLAVGLALINYGRQELADDLITKMLASDESLLRYGGAFTIALAYAGTGNNSAVKRLLHVAVSDSNDDVRRAAVIALGFVLLRDYTTVPRIVQLLSKSHNAHVRCGTAFALGIACAGKGLQSAIDVLDPLTKDPVDFVRQAAMIALSMILIQQTEKLNPQVADINKNFLSVITNKHQEGLAKFGACVAQGIMNAGGRNVTIQLENADTGTLDTKSVVGLVMFSQFWYWFPLAHFLSLSFTPTTVIGIRGSDQAIPKFQMNCYAKEDAFSYPRMYEEASGKEVEKVATAVLSTTARAKARAKKTKKEKGPNEEEKKKEHEEKEKERETNKKGIKETKENDEEFYKNKYSSKPYKVDNMTRILPQQSRYISFIKDDRFVPVRKFKGNNGVVVLRDREPKEPVALIETVRQMKDVNAPLPTPFKVDDNVDFPSA

Assays:
Rpn1 [1] = molecular target: T1, Rpn1 (S. cerevisiae, UniProt P38764 1-993); test: atomic force microscopy
T1 sequence: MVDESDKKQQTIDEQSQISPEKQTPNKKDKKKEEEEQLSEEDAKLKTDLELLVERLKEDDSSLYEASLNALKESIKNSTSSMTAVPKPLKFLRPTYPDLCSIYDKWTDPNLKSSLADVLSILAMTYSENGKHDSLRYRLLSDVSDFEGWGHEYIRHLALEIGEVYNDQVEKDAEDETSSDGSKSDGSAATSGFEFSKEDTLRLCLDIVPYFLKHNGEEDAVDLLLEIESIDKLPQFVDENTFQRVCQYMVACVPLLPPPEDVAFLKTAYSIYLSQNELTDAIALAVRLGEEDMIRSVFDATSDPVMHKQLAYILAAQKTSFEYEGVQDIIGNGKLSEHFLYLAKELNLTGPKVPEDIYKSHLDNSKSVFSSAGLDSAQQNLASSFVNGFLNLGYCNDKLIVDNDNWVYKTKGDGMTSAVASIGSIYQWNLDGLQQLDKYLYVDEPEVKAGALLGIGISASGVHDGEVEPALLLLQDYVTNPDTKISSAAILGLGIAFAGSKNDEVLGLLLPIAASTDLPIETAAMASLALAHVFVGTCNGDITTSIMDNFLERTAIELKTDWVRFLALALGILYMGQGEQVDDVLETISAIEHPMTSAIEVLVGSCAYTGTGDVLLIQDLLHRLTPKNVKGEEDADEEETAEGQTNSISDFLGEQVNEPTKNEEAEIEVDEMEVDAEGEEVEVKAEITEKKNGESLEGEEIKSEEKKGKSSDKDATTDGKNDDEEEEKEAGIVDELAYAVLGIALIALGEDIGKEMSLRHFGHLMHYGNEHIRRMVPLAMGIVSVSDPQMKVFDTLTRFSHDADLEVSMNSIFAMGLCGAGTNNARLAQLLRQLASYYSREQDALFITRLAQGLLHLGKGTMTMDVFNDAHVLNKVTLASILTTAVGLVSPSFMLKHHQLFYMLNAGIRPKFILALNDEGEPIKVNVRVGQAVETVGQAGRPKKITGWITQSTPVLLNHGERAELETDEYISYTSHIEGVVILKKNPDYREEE

Rpn1-Rpn2 unit = Rpn1-Rpn2 unit (S. cerevisiae, UniProt P38764 1-993; P32565 1-945); test: atomic force microscopy
Rpn1 [2] = molecular target: T1, Rpn1; test: cross-linking

| Binder | stoichiometry N (Rpn1 [1]) | stoichiometry N (Rpn1-Rpn2 unit) | binding result (Rpn1 [2]) |
| --- | --- | --- | --- |
| B1 | 1 | 1 |  |
| B2 |  |  | binds |
